Measurements taken from patent publication US20210403541A1.

Target: PD17(p)PS413 (24AWF) (human)
Assay: peptide-coated ELISA (1 µg/ml peptide 24AWF coat, anti-human IgG-HRP, ABTS, OD405)

EC50 (read off the curve): 0.05 µg/mL
B1: V5-AFM-hIgG4-S228P (antibody, V domains shown)
VH: EVQLVESGGGLVQPGGSLRLSCAASGFTFSSFALNWVRQAPGKGLEWVGHIRSKTNNYVTFYAASVKGRFTVSRDDSQNTAYLQMNSLKTEDTATYYCVRRGPRDSWFGYWGQGTLVTVSS
VL: DIVMTQSPLSLPVTLGEPASISCRSSQKIVHRNANTYLEWYLQKPGQSPQLLIYTVSNRFSGVPDRFSGSGSGTDFTLKISRVEAEDLGVYYCFQGSYLPLTFGGGTKVEIK
